The supplement of paper PMC7877785
± gives the uncertainty stated by the source.

Experiment: self-splicing fitness, log relative to wild type (ln ratio); higher = more splicing; Tetrahymena group I intron in knt gene, E. coli kanamycin selection, DiMSum; sequences stand for … in CUCUCU…GGAGGGAAAAGUUAUCAGGCAUGCACCUGGUAGCUAGUCUUUAAACCAAUAGAUUGCAUCGGUUUAAAAGGCAAGACCGUCAAAUUGCGGGAAAGGGGUCAACAGCCGUUCAGUACCAAGUCUCAGGGGAAACUUUGAGAUGGCCUUGCAAAGGGUAUGGUAAUAAGCUGACGGACAUGGUCCUAACCACGCAGCCAAGUCCUAAGUCAACAGAUCUUCUGUUGAUAUGGAUGCAGUUCACAGACUAAAUGUCGGUCGGGGAAGAUGUAUUCUUCUCAUAAGAUAUAGUCGGACCUCUCCUUAAUGGGAGCUAGCGGAUGAAGUGAUGCAACACUGGAGCCGCUGGGAACUAAUUUGUAUGCGAAAGUAUAUUGAUUAGUUUUGGAGUACUCGUGGUCG
In short: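 Six replicate transformations of E. coli BL21(DE3) with a pET-22b(+) library were grown overnight at 37°C or 30°C. The library randomised all eight P1ex-region intron nucleotides, the intron lying in the knt kanamycin-resistance gene, and plates were LB agar with or without 25 μg/mL kanamycin plus 100 μg/mL carbenicillin, 50 μM IPTG and 0.2% rhamnose. Pooled colonies were amplicon-sequenced on an Illumina HiSeq 2500, and fitness is the DiMSum error-weighted combination of wild-type-normalised replicate fold changes, kanamycin versus none.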

| Sequence | self-splicing fitness (ln) (30 °C) | self-splicing fitness (ln) (37 °C) |
| --- | --- | --- |
| CACAAGCAAUAUUACGCGGU | -3.66 ± 0.15 | -2.04 ± 0.12 |
| CACAAGCAAUAUUACGCUAG | -2.72 ± 0.13 | -1.43 ± 0.1 |
| CACAAGCAAUAUUACGCUGU | -3.78 ± 0.17 | -2.57 ± 0.18 |
| CACAAGCAAUAUUACGCUUA | -2.27 ± 0.13 | -2.15 ± 0.13 |
| CACAAGCAAUAUUACGGACG | -0.358 ± 0.046 | 0.611 ± 0.072 |
| CACAAGCAAUAUUACGGAGC | -3.77 ± 0.29 | -3.25 ± 0.24 |
| CACAAGCAAUAUUACGGAUC | -4.63 ± 0.39 | -2.09 ± 0.13 |
| CACAAGCAAUAUUACGGCAU | -3.26 ± 0.12 | -2.33 ± 0.12 |
| CACAAGCAAUAUUACGGCCU | -4.49 ± 0.24 | -2.74 ± 0.24 |
| CACAAGCAAUAUUACGGGCG | -0.358 ± 0.06 | 0.319 ± 0.07 |
| CACAAGCAAUAUUACGGUAA | -2.26 ± 0.096 | -2.21 ± 0.12 |
| CACAAGCAAUAUUACGGUAC | -4.11 ± 0.22 | -2.03 ± 0.17 |
| CACAAGCAAUAUUACGGUUU | -3.34 ± 0.14 | -2.59 ± 0.19 |
| CACAAGCAAUAUUACGUAGU | -3.4 ± 0.12 | -1.81 ± 0.11 |
| CACAAGCAAUAUUACGUCCA | -3.23 ± 0.2 | -1.59 ± 0.12 |
| CACAAGCAAUAUUACGUCCG | -0.428 ± 0.094 | 0.252 ± 0.12 |
| CACAAGCAAUAUUACGUCGA | -2.62 ± 0.078 | -0.984 ± 0.073 |
| CACAAGCAAUAUUACGUCUU | -3.88 ± 0.17 | -2.25 ± 0.14 |
| CACAAGCAAUAUUACGUGGA | -2.95 ± 0.11 | -2.81 ± 0.13 |
| CACCAGCAAUAUUACGAACG | 0.223 ± 0.063 | 0.344 ± 0.078 |
| CACCAGCAAUAUUACGACCA | -1.94 ± 0.13 | -0.0102 ± 0.16 |

| Sequence | self-splicing fitness (ln) (30 °C) | self-splicing fitness (ln) (37 °C) |
| --- | --- | --- |
| CACCAGCAAUAUUACGAGAU | -3.87 ± 0.17 | -2.42 ± 0.16 |
| CACCAGCAAUAUUACGAUUU | -3.36 ± 0.15 | -1.52 ± 0.13 |
| CACCAGCAAUAUUACGCAAU | -4.25 ± 0.18 | -4.19 ± 0.16 |
| CACCAGCAAUAUUACGCAUU | -2.6 ± 0.086 | -1.86 ± 0.1 |
| CACCAGCAAUAUUACGCCCA | -1.72 ± 0.099 | -1.71 ± 0.13 |
| CACCAGCAAUAUUACGCGGU | -3.67 ± 0.12 | -3.31 ± 0.15 |
| CACCAGCAAUAUUACGCGUG | -3.74 ± 0.16 | -2.44 ± 0.13 |
| CACCAGCAAUAUUACGCUAA | -2.78 ± 0.13 | -2.33 ± 0.16 |
| CACCAGCAAUAUUACGCUCG | -0.247 ± 0.062 | 0.219 ± 0.087 |
| CACCAGCAAUAUUACGGAAU | -2.97 ± 0.14 | -2.18 ± 0.16 |
| CACCAGCAAUAUUACGGAUA | -1.42 ± 0.065 | -1.18 ± 0.069 |
| CACCAGCAAUAUUACGGGGC | -4.45 ± 0.22 | -1.29 ± 0.14 |
| CACCAGCAAUAUUACGUAUU | -3.78 ± 0.15 | -2.7 ± 0.16 |
| CACCAGCAAUAUUACGUCCA | -3.43 ± 0.26 | -2.26 ± 0.2 |
| CACCAGCAAUAUUACGUUAA | -3.35 ± 0.095 | -2.37 ± 0.11 |
| CACCAGCAAUAUUACGUUCG | -0.281 ± 0.049 | -0.196 ± 0.062 |
| CACCAGCAAUAUUACGUUUA | -3.33 ± 0.16 | -2.47 ± 0.13 |
| CACGAGCAAUAUUACGACUG | -2.46 ± 0.1 | -0.773 ± 0.12 |
| CACGAGCAAUAUUACGAGGC | -3.19 ± 0.26 | -1.81 ± 0.24 |
| CACGAGCAAUAUUACGAGUA | -2.53 ± 0.16 | -2.11 ± 0.22 |
| CACGAGCAAUAUUACGAUUC | -3.44 ± 0.15 | -2.49 ± 0.17 |
